One block for each binder: values may come before it.
Assays:
[1] = target: T1, rHuman IGF-1 sR (IGF-1 sR), CF (R&D Systems Cat#391-GR) (human, UniProt P08069 31-932); test: MSD ECL multi-spot assay, antigen spotted on plate, Fab 1.19 uM; blank spot 11543
T1 construct: Bought soluble receptor; also called insulin-like growth factor-1 soluble receptor; IGF-R1

[2] = target: T2, Recombinant Human DLL4 (R&D Systems Cat#1506-D4/CF) (human, UniProt Q9NR61 27-524); test: as above
T2 construct: Bought protein; also called delta-like protein 4; rHuman DLL4

[3] = target: T3, rHuman Erythropoietin R/Fc Chimera, CF (R&D Systems Cat#963-ER) (human, UniProt P19235 25-250); test: as above
T3 construct: Bought protein; also called EPOR; EPO R/Fc; Fc part of the bought chimera not given
T3 sequence: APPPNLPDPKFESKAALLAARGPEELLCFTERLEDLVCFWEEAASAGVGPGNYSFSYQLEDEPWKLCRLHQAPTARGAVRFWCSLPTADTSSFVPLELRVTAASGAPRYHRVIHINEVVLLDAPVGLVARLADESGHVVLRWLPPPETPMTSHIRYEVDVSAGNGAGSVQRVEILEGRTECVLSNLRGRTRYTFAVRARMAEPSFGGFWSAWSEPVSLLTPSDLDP

[4] = target: T4, rHuman P-Cadherin/Fc Chimera, CF (R&D Systems Cat#861-PC) (human, UniProt P22223 108-654); test: as above
T4 construct: Bought protein; also called CDH3; Fc part of the bought chimera not given

[5] = target: T5, rHuman EGF R/Fc Chimera, CF (R&D Systems Cat#344-ER) (human, UniProt P00533 25-645); test: as above
T5 construct: Bought protein; also called epidermal growth factor receptor; Fc part of the bought chimera not given

[6] = target: T6, rHuman Notch-1/Fc Chimera, CF (R&D Systems Cat#3647-TK) (human, UniProt P46531 19-526); test: as above
T6 construct: Bought protein; Fc part of the bought chimera not given

[7] = target: T1, rHuman IGF-1 sR (IGF-1 sR), CF (R&D …); test: MSD ECL multi-spot assay, antigen spotted on plate, Fab 0.03 uM; blank spot 373;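 further: blank spot per well as comparator with Hit at signal to blank ratio of 4 or more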
[8] = target: T7, rHuman ErbB2/Fc Chimera, CF (R&D Systems Cat#1129-ER) (human, UniProt P04626 23-652); test: as above
T7 construct: Bought protein; also called HER2/neu; human epidermal growth factor 2 receptor; Fc part of the bought chimera not given

[9] = target: T8, rHuman CD44/Fc Chimera, CF (R&D Systems Cat#3660-CD) (human, UniProt P16070 21-220); test: as above
T8 construct: Bought protein; Fc part of the bought chimera not given

[10] = target: T2, Recombinant Human DLL4 (R&D Systems …); test: as above
[11] = target: T9, rHuman HGF R/c-MET/Fc Chimera, CF (R&D Systems Cat#358-MT/CF) (human, UniProt P08581 25-932); test: as above
T9 construct: Bought protein; also called HGF R/Fc; hepatocyte growth factor receptor; Fc part of the bought chimera not given

[12] = target: T3, rHuman Erythropoietin R/Fc Chimera, CF …; test: as above
[13] = target: T4, rHuman P-Cadherin/Fc Chimera, CF (R&D …); test: as above
[14] = target: T5, rHuman EGF R/Fc Chimera, CF (R&D …); test: as above
[15] = target: T6, rHuman Notch-1/Fc Chimera, CF (R&D …); test: as above
[16] = target: T1, rHuman IGF-1 sR (IGF-1 sR), CF (R&D …); test: MSD ECL multi-spot assay, antigen spotted on plate, Fab 0.25 uM; blank spot 3693
[17] = target: T2, Recombinant Human DLL4 (R&D Systems …); test: as above
[18] = target: T3, rHuman Erythropoietin R/Fc Chimera, CF …; test: as above
[19] = target: T4, rHuman P-Cadherin/Fc Chimera, CF (R&D …); test: as above
[20] = target: T5, rHuman EGF R/Fc Chimera, CF (R&D …); test: as above
[21] = target: T1, rHuman IGF-1 sR (IGF-1 sR), CF (R&D …); test: MSD ECL multi-spot assay, antigen spotted on plate, Fab 0.65 uM; blank spot 441
[22] = target: T7, rHuman ErbB2/Fc Chimera, CF (R&D …); test: as above
[23] = target: T8, rHuman CD44/Fc Chimera, CF (R&D Systems …); test: as above
[24] = target: T2, Recombinant Human DLL4 (R&D Systems …); test: as above
[25] = target: T9, rHuman HGF R/c-MET/Fc Chimera, CF (R&D …); test: as above
[26] = target: T4, rHuman P-Cadherin/Fc Chimera, CF (R&D …); test: as above
[27] = target: T5, rHuman EGF R/Fc Chimera, CF (R&D …); test: as above
[28] = target: T1, rHuman IGF-1 sR (IGF-1 sR), CF (R&D …); test: MSD ECL multi-spot assay, antigen spotted on plate, Fab 0.36 uM; blank spot 928;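 further: blank spot per well as comparator with Hit at signal to blank ratio of 4 or more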
[29] = target: T7, rHuman ErbB2/Fc Chimera, CF (R&D …); test: as above
[30] = target: T8, rHuman CD44/Fc Chimera, CF (R&D Systems …); test: as above
[31] = target: T2, Recombinant Human DLL4 (R&D Systems …); test: as above
[32] = target: T9, rHuman HGF R/c-MET/Fc Chimera, CF (R&D …); test: as above
[33] = target: T3, rHuman Erythropoietin R/Fc Chimera, CF …; test: as above
[34] = target: T4, rHuman P-Cadherin/Fc Chimera, CF (R&D …); test: as above
[35] = target: T5, rHuman EGF R/Fc Chimera, CF (R&D …); test: as above
[36] = target: T6, rHuman Notch-1/Fc Chimera, CF (R&D …); test: as above

ECL signal [1]: 14100 | ECL signal [2]: 39600 | ECL signal [3]: 141000 | ECL signal [4]: 34600 | ECL signal [5]: 32000 | ECL signal [6]: 41700
B1: Fab VH1-46_IGHD6-13*01_IGHJ4*01 & L2_IGKJ1*01 (Fab, V domains shown)
VH: QVQLVQSGAEVKKPGASVKVSCKASGYTFTSYYMHWVRQAPGQGLEWMGIINPSGGSTSYAQKFQGRVTMTRDTSTSTVYMELSSLRSEDTAVYYCAREGYSSSWYDYFDYWGQGTLVTVSS
VL: not shown

ECL signal [7]: 344 | ECL signal [8]: 2560 | ECL signal [9]: 421 | ECL signal [10]: 476 | ECL signal [11]: 311 | ECL signal [12]: 492 | ECL signal [13]: 352 | ECL signal [14]: 381 | ECL signal [15]: 563
B2: Fab VH2-5_IGHD7-27*01_IGHJ2*01 & L2_IGKJ1*01 (Fab, V domains shown)
VH: QITLKESGPTLVKPTQTLTLTCTFSGFSLSTSGVGVGWIRQPPGKALEWLALIYWNDDKRYSPSLKSRLTITKDTSKNQVVLTMTNMDPVDTATYYCAHRPNWGYWYFDLWGRGTLVTVSS
VL: not shown

ECL signal [16]: 4930 | ECL signal [17]: 14700 | ECL signal [18]: 30100 | ECL signal [19]: 16100 | ECL signal [20]: 88000
B3: Fab VH1-46_IGHD2-15*01_IGHJ2*01 & L2_IGKJ1*01 (Fab, V domains shown)
VH: QVQLVQSGAEVKKPGASVKVSCKASGYTFTSYYMHWVRQAPGQGLEWMGIINPSGGSTSYAQKFQGRVTMTRDTSTSTVYMELSSLRSEDTAVYYCAREGYCSGGSCYSYWYFDLWGRGTLVTVSS
VL: not shown

ECL signal [21]: 656 | ECL signal [22]: 2940 | ECL signal [23]: 797 | ECL signal [24]: 849 | ECL signal [25]: 437 | ECL signal [26]: 695 | ECL signal [27]: 662
B4: Fab VH1-69_IGHD1-1*01_IGHJ6*01 & A17_IGKJ1*01 (Fab, V domains shown)
VH: QVQLVQSGAEVKKPGSSVKVSCKASGGTFSSYAISWVRQAPGQGLEWMGGIIPIFGTANYAQKFQGRVTITADKSTSTAYMELSSLRSEDTAVYYCARGYNWNDDYYYYYGMDVWGQGTTVTVSS
VL: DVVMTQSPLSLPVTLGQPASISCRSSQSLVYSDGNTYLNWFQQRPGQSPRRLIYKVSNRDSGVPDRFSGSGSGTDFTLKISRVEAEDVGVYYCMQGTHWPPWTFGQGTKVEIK
notes: Fab from E. coli; VH joined to the CH1 (Flag and His tags) of Plasmid A, VL to the kappa CL of Plasmid C

ECL signal [28]: 1080 | ECL signal [29]: 1470 | ECL signal [30]: 1540 | ECL signal [31]: 9080 | ECL signal [32]: 1220 | ECL signal [33]: 2430 | ECL signal [34]: 1800 | ECL signal [35]: 1400 | ECL signal [36]: 1920
B5: Fab VH1-46_IGHD7-27*01_IGHJ2*01 & A27_IGKJ1*01 (Fab, V domains shown)
VH: QVQLVQSGAEVKKPGASVKVSCKASGYTFTSYYMHWVRQAPGQGLEWMGIINPSGGSTSYAQKFQGRVTMTRDTSTSTVYMELSSLRSEDTAVYYCARANWGYWYFDLWGRGTLVTVSS
VL: not shown
notes: as for B4
